In patent US20220332804A1 (CSL INNOVATION, published 2022):
Where a chain is given by its changes, count along the chain named.

Legend:
Assay in all cases: SPR, KD relative to WT C2;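 further: biacore SPR at 37 °C, anti-C2 mAbs captured on anti-human IgG chips with alanine or serine point mutants of C2 as analyte, KD from 1:1 fit compared with wild-type C2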
[1] = molecular target: T1, human C2 L279A (human, UniProt P06681 21-752)
T1 sequence: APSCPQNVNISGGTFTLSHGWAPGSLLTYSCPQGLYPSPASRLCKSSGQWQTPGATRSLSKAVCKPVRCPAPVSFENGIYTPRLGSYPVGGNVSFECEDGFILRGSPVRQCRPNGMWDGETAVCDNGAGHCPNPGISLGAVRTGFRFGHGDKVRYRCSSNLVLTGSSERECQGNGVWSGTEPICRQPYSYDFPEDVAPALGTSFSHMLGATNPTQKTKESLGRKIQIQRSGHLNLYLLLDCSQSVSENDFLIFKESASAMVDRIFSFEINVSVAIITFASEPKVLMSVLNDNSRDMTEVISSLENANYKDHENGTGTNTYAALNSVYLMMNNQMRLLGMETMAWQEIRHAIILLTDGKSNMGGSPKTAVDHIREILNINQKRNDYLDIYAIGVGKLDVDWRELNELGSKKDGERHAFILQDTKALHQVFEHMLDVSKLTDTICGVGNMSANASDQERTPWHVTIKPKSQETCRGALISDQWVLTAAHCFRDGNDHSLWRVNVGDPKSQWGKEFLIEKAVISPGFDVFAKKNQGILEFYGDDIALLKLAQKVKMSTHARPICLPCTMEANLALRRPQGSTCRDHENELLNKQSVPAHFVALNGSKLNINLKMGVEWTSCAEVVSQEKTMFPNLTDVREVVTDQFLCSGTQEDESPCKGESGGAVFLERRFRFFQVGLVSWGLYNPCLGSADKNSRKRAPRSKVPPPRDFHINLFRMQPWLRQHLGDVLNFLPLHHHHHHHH

[2] = molecular target: T2, human C2 M316A (human, UniProt P06681 21-752)
T2 sequence: T1 sequence with A259L, M296A

[3] = molecular target: T3, human C2 A436S (human, UniProt P06681 21-752)
T3 sequence: T1 sequence with A259L, A416S

[4] = molecular target: T4, human C2 K244A (human, UniProt P06681 21-752)
T4 sequence: T1 sequence with K224A, A259L

B1: RF16-242 (antibody, human IgG4 S228P, lambda, V domains shown)
VH: EVQLLQSGAEVKKPGESLKISCKGSGYSFTSYWIGWVRQMPGKGLEWMGIIYPGDSDTRYSPSFQGQVTISADKSISTAYLQWSSLKASDTAMYYCARRGHYGDYFDYWGQGTLVTVSS
VL: SYELTQPPSVSVSPGQTARITCSGDALPKKYAYWYHQKSGQAPVLVIYEDRRRPSEIPERFSGSSSGTMATLTITGAQVEDEGVYFCYSRDRAGNQRVFGGGTQLTVLG
notes: pH-dependent anti-C2 antibody from a phage display library
For B1, the Fold diff [1] was 7 fold, the Fold diff [2] was 1 fold and the Fold diff [3] was 1 fold. The Fold diff [4] was 4 fold.
